Drawing on a protein production outcome set (Wang et al. 2014), this text covers protein production for 19 sequences.

A short description of this data set: label from the status in PepcDB records.
With “MSLSYVKEGLAVLEDGRLIYITPEEFRQLLQGDAILAVYSKTCPHCHRDWPQLIQASKEVDVPIVMFIWGSLIGERELSAARLEMNKAGVEGTPTLVFYKEGRIVDKLVGATPWSLKVEKAREIYGGEGHHHHHH”, the protein production entry is recorded as “not failed”.

In the case of “MSLTADTKRPLTLRDVSEASGVSEMTVSRVLRNRGDVSDATRARVLAAAKELGYVPNKIAGALASNRVNLVAVIIPSLSNMVFPEVLTGINQVLEDTELQPVVGVTDYLPEKEEKVLYEMLSWRPSGVIIAGLEHSEAARAMLDAAGIPVVEIMDSDGKPVDAMVGISHRRAGREMAQAILKAGYRRIGFMGTKMPLDYRARKRFEGFTEVLGKNGVEIEDREFYSGGSALAKGREMTQAMLERSPDLDFLYYSNDMIAAGGLLYLLEQGIDIPGQIGLAGFNNVELLQGLPRKLATMDACRLEIGRKAAEIIAKRLEDPEAEIETRITLEPKISYGDTLKREGHHHHHH”, the protein production entry is “not failed”.

For the sequence “MSLTDTKVKNAKPSEKVVKLTDGFGLYLLVHTNGSKYWQLGYRFEGKQKVFSIGVYPAVSLANARQRRDEAKKLLAAGVDPSAKKRADNKSVQEKRNNTRAFKTVAKSWFATKTTWSEDYQRSVWTRLETYLFPDIGNKDIAELDTGDLLVPIKKIEKLGYLEIAMRVKQYATAIMRYAVQQKMIRFNPAYDLEGAVQKPQTEHRPAIELEEIPTLLERIEGYKGRSRLTQLAIKLNLLIFIRSSELRFARWSEIDFKSGLWVIPEQREAIKGIKHSDRGAKMRRKHYVPLCEQALVILGELKDLTYDVNGDDGFILTGCYDAMKPMSENTINKALRKMGYDTKTDLCGHGFRTLACSALIESGIWPEDVVELQMSHMEKNNVRAAYTHKAKHLEQRRLMLQWWADFLDANGSGMVRPFEFAQGATQY”, the protein production entry is listed as “failed”.

Take “MSLTEKFRPTLKDVARQAGVSIATASRALADNPAVAASTRERIQQLASDLGYRANAQARALRSSRSNTIGVIVPSLINHYFAAMVTEIQSTASKAGLATIITNSNEDATTMSGSLEFLTSHGVDGIICVPNEECANQLEDLQKQGMPVVLVDRELPGDSTIPTATSNPQPGIAAAVELLAHNNALPIGYLSGPMDTSTGRERLEDFKAACANSKIGEQLVFLGGYEQSVGFEGATKLLDQGAKTLFAGDSMMTIGVIEACHKAGLVIGKDVSVIGFDTHPLFALQPHPLTVIDQNVEQLAQRAVSILTELIAGTVPSVTKTTIPTALIHRESIINSTLRKEGHHHHHH”: the protein production result is recorded as “not failed”.

For the sequence “MSLTFSILAHDPETGAIGGAAATGSLCVGGWVLRGDLNAGMSASQGAAPSTFWGEEVLQHLRDGSHPEDAVNHVTSQDSGRAYRQLAAMDLLGNAAAFTGSENQDIKGSVTFASGIASGNMLGDNSVLGAMTEAFVASDLTFERRLLAALIAAEGAGSDFRGLLSAAMLVLHPDRPPVTLRIDYHPDNPIGALEQLYQKATTGDYADWARQVPVLSDKERILDEGHHHHHH”, the protein production entry is recorded as “not failed”.

As to “MSLTIGVIGKSVHPYWSQVEQGVKAAGKALGVDTKFFVPQKEDINAQLQMLESFIAEGVNGIAIAPSDPTAVIPTIKKALEMGIPVVTLDTDSPDSGRYVYIGTDNYQAGYTAGLIMKELLGGKGKVVIGTGSLTAMNSLQRIQGFKDAIKDSEIEIVDILNDEEDGARAVSLAEAALNAHPDLDAFFGVYAYNGPAQALVVKNAGKVGKVKIVCFDTTPDILQYVKEGVIQATMGQRPYMMGYLSVTVLYLMNKIGVQNTLMMLPKVKVDGKVDYVIDTGVDVVTPENLDEYLKKMEELGIPIKEGHHHHHH”, the protein production result is recorded as “not failed”.

Consider “MSLTLLKGRRKVDTIKVGILGYGLSGSVFHGPLLDVLDEYQISKIMTSRTEEVKRDFPDAEVVHELEEITNDPAIELVIVTTPSGLHYEHTMACIQAGKHVVMEKPMTATAEEGETLKRAADEKGVLLSVYHNRRWDNDFLTIKKLISEGSLEDINTYQVSYNRYRPEVQARWREKEGTATGTLYDLGSHIIDQTLHLFGMPKAVTANVMAQRENAETVDYFHLTLDYGKLQAILYGGSIVPANGPRYQIHGKDSSFIKYGIDGQEDALRAGRKPEDDSWGADVPEFYGKLTTIRGSDKKTETIPSVNGSYLTYYRKIAESIREGAALPVTAEEGINVIRIIEAAMESSKEKRTIMLEHEGHHHHHH”, for which the protein production entry is “not failed”.

As to “MSLTPWLSIVGISEEGWLALTPIAQQCILQADILVGSDRHFDLLPSLPGAEQWRWGSPFSATITQILERRGQSICILASGDPMCYGVGSLLAQRLPLTELQILPAPSAFSLACSRLGWALPEVETLSLCGRDPALLNALLYPGAKILALSADRSTPATIAEQLCQQGWGSSRLTVLEHLGGPKERKISEIAEHWSQPTIASLNTVAIECHARDRDLIVPPRLTGLPDAAYHHDGQLTKREVRAITLAALAPLPGQLLWDVGAGCGSIGIEWMRSDRRCRAIAIEQHPQRLQIITQNAIALGVPNLQVVAGSAPATLSGLPQPDAIFIGGGVTAPGVLDQCWQALPMGGRLVVNAVTLESEQVVLAGQQRWGGDLIRVAVQRAEPIGRFLGWKSLAPITQWTVKKTALEHHHHHH”, the protein production result is given as “not failed”.

In the case of “MSLTRNRTVALAIIDMQNDFVLPGAPACVEGAMGTVPVIAGLLAKARAEGWMVLHVVRAHRADGSDAEKSREHLFLEGGGLCVAGTPGAEIVAGLEPASGETVLVKTRFSAFMGTECDMLLRRRGVDTLLVSGTQYPNCIRGTAVDAFALDYDVVVVTDACSARTPGVAESNINDMRAMGITCVPLTALDDVLARREGHHHHHH”, the protein production result was “not failed”.

Take “MSLTRPLRADAARNRARVLEVAYDTFAAEGLGVPMDEIARRAGVGAGTVYRHFPTKQALVVAVAEDRVRRIVDHARTLLAAEGPGEALFVFMRDMVRSAAADYGLVDALVGYGLDLEVAAPGAEAAFLATLGELLAAAQRAGTVRADVDVAVIKALLVVCKVPQVYDGEVSERVVRVIEDGLRVRSSVEGHHHHHH”: the protein production entry is “not failed”.

For the sequence “MSLTVQDLHFKNKVNFIGGQYVPSNESDTIDILSPSTGKVIGEIPAGCKADAENALEVAQAAQKAWAKLTARTRQNMLRTFANKIRENKHILAPMLVAEQGKLLSVAEMEVDVTATFIDYGCDNALTIEGDILPSDNQDEKIYIHKVPRGVVVGITAWNFPLALAGRKIGPALITGNTMVLKPTQETPLATTELGRIAKEAGLPDGVLNVINGTGSVVGQTLCESPITKMITMTGSTVAGKQIYKTSAEYMTPVMLELGGKAPMVVMDDADLDKAAEDALWGRFANCGQVCTCVERLYVHASVYDEFMAKFLPLVKGLKVGDPMDADSQMGPKCNQREIDNIDHIVHEAIKQGATVATGGKTATVEGFEGGCWYEPTVLVDVKQDNIVVHEETFGPILPIVKVSSMEQAIEFCNDSIYGLSAYVHTQSFANINQAISDLEVGEVYINRGMGEQHQGFHNGWKQSGFGGEDGKFGLEQYLEKKTVYINEAEGHHHHHH”, the protein production result is on record as “not failed”.

Take “MSLVEATLEVIGGKWKCVILCHLTHGKKRTSELKRLMPNITQKMLTQQLRELEADGVINRIVYNQVPPKVEYELSEYGRSLEGILDMLCAWGANHINRVEGHHHHHH”: the protein production entry is reported as “not failed”.

Turning to “MSLVNLTINGKHVSAPSGTSILDAAKLINIKIHNLCHLHMNEIDKLDTCASCRVCMVETERGLVPACGTVIKEGMKVQTNSAKALNARRTIVELLLSDHPQDCFVCEKNGDCELQTIAADLGVRKIRYQGSKSFAGKDTSTKSLVKDHSKCILCRRCETVCNDIQTVGALSGVNRGFNTLVSTFFNSDMVETECTFCGQCISVCPTGALTEVDNVPKLWDVLNKKEKTIVVQVAPAVRVAIGEEFGLEPGSISTGKMVAALKALGFEHVFDTNFGADFTIMEEATEFIERIQKGENLPILTSCCPAWVNFLEHNYPDKLNLASSCKSPQGMFGSIAKNYYAPKILGINPEELYVVSVMPCVAKKYEASREELSESGILDVDLSITTRELAKMIKEAAIDLPNLQDQDFDNPLGKSTGAASIFGASGGVLEAALRTSYEKITNKTLDNVNFTNVRGLKGIREASIDVDGTTVNVCIVNTLKNARKIMDKVRSGECKYHIIEVMACPGGCVGGAGQPYHHGNTEIVDRRANALYEIDRNKAIRKSHENPDLQAIYKDFFGEPNSDVAHKYLHTHYFDKSCVYGECPQECACEEAK”, the protein production result was “failed”.

For the sequence “MSLVRSKAPLRLGLAGGGSDVSPYSDIYGGLILNATINLYAYCTIEETNSGRIEINAYDAQCCKSYLSMSQLEIDGEASLIKGVYNRIIRDYRLEPKSFKITTYNDAPAGSGLGTSSTMVVCILKAFIEWLSLPLGDYETSRLAYEIERKDLGLSGGKQDQYAAAFGGFNYMEFLQNDLVIVNPLKMKRWIVDELESSMVLYFTGRSRSSAAIINEQKKNTSEGNQTAIEAMHKIKQSAIDTKLALLKGDVGEFARILGEGWENKKKMAGAITNPMIQEAFDVATGAGAMAGKVSGAGGGGFIMFVVEPTRKEEVVRALNNLNGFVMPFQFIDDGAHGWKIYSTDKVQKEGHHHHHH”, the protein production result is reported as “not failed”.

Regarding “MSLWLTHPLFLPSLIVGVTIVLWATSLLPEFITALLFFAAAMMAKIAPPEVIFGGFASSAFWLVFSGFVLGIAIRKTGLADRAAQALSARLTDSWPRMVASVVLLSYALAFVMPSNMGRIALLMPIVAAMARRAGIADGSRGWFGLALAVGFGTFQLSATILPANVPNLVMSGAAEGSYGIHLNYVPYLLLHTPVLGWLKGAVLVALICWLFPGKPHPPRDLAPLPPMSRDEKRLAWLLAVVLSLWVTESWHGVGPAWTGLAAAVITLLPRVGFINGEEFASGVNMRTCIYVAGILGLAIAVTQTGIGGAVGNALLQVMPLDKDNPFTSFLALTGITSALNFIMTANGVPALYTTFAQSFADATGFPLLSVIMIQVLGYSTPLLPYQASPIVVAMGLGKVPARAGMQLCLALAAVSYLILLPLDYAWYQLLGKL”, the protein production result was “failed”.

Consider “MSMECVVQGIIETQHVEALEILLQGLCGVQRERLRVHELCLRSGPNLGVVSSEVRLLCDLDQPEPTWTVKHVGGAMRGAGADQISVLVRNMIESKVSKNALRMFYALGYKLDHELLKVGFAFHFQRTAHISVSVSSVNKMPKVHAIDEAVPVTPGMQIVDVTAPATSENYSEVAAAVSSFCEFLAPLVHLSKPSISTGVVPTAAAAAASLMSDGGGTTL”, for which the protein production entry was “failed”.

As to “MSMELFEVHEGKAKVLVPKAKTIYDSPVFYNPRMAPNRDVVVLLLNVLKPKIVLDALSATGIRGIRFALETPAEEIWMNDINELAYELMKKNVLLNFKGTLKENAKRAIFEGEKTIVINNDDANRLMAEKHRYFHFIDLDPFGSPMEFLDTALRSVKRKGILGVTATDGAPLCGAHPKACLRKYLAVPLRGELCHEVGTRILVGVIARYAAKYDLGMEVLLAYYKDHYFRAFVKLKDGAKKGDETLENLGYVYFDEKTGRFEVEKSFLSTRPNAYGPLWLGPLKNEKVVGEMLELLVSGFEVANYREVLKLLHMLHEELDIPLFYDTHALGKRLKIEPKKLGEIIKELKSMGYEATRTHFSPTGIKTNAPYEVFVEVMRKN”, the protein production result was “failed”.

Take “MSMIRLTVEETNLLSIYNEGGKRALIENVNAALPYMDADMRELAKRTLSKVDALTEAEFAELPIYAADEV”: the protein production result is “failed”.

In the case of “MSMKKQFALFSTLLLLGSSMPVGAFAEGNNLVAENSSVAETTAEATTAEATETTATSETTEATEESTTETESSTESSESATTESTETSGTETTDSTTDSTSTSTTESTTDSTSTSTTESTTDSTSTSTTESSTTPTTTPSSSKEQPKPGTSTSESKQPAKPVTPTAPAEKPVEQPAASTPQPEIVPPVTNETVGLVEDDETFTVSKTKKTEEFIQEIGESARKVAKDKNLYASVMIAQAILESGSGNSKLSQKPNYNLFGIKGDYKGQSVSFITYEDNGFGNLYTVEAKFRQYPTYKESMEDYAKLLKNGLDSNKDFYHGVWKTEAKSYKEATRFLTGKYATDKDYHKKLNALIKTYDLTYYDKEKATVEPMESNFPAYNGKNYDTFNSYAWGNCTQYVYNRITQLGKRVDLTMGNGQDWGETGRARGYKVSRTPKAGAAVSFPAGVLGADNTYGHVAFVEKVFKDGSILISEMNVKGLNVVSTRTISADETHLMNYIVPKDK”, the protein production result is recorded as “failed”.
